The values that follow come from publication PMC5571939.

For one assay, the target named is HL-Munc18c (mouse) (UniProt Q60770). As to the kind of experiment: BLI; HL-Munc18c immobilised on Ni-NTA biosensors; de-tagged Sx4 constructs 25–400 nM in solution; BLItz; 1:1 fit.
Assay [1] has as its target Alexa488-labeled VAMP2 E78C (GST-cleaved) (rat) (UniProt P63045). As to the kind of experiment: fluorescence polarisation; SNARE complex formation by fluorescence anisotropy, all in solution: 700 nM SNAP23, 100 nM Alexa488-labeled VAMP2, 700 nM Sx4 variant, no Munc18c; 25°C; 25 mM HEPES pH 8.0, 200 mM NaCl, 1 mM TCEP, 2% glycerol.
The target is the same in assay [2]. Nature of the assay: fluorescence polarisation; SNARE complex formation by fluorescence anisotropy, all in solution: 700 nM SNAP23, 100 nM Alexa488-labeled VAMP2, 700 nM Sx4 variant, in the presence of 500 nM HMunc18c; 25°C; 25 mM HEPES pH 8.0, 200 mM NaCl, 1 mM TCEP, 2% glycerol.

Sequence of HL-Munc18c (mouse) (Q60770 whole entry): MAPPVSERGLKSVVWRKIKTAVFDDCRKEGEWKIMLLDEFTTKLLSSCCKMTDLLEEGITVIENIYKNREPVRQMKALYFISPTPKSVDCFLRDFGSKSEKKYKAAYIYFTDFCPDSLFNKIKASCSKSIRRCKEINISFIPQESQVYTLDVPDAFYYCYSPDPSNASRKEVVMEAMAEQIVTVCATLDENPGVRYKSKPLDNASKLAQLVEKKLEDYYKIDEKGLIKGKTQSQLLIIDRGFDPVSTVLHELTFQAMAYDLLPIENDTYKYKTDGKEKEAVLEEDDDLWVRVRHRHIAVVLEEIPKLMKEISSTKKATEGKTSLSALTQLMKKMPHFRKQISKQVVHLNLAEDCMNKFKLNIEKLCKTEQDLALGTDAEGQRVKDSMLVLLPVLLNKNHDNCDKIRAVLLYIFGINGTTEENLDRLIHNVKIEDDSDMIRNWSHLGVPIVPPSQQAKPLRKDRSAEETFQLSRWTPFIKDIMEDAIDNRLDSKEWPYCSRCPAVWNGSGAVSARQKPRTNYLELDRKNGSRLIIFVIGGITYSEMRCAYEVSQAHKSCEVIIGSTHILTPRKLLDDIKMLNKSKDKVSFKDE
Sequence of Alexa488-labeled VAMP2 E78C (GST-cleaved) (rat) (P63045 1-96 E78C): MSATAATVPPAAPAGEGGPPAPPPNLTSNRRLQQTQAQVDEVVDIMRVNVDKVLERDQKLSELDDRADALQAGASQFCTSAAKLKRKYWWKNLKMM

For the substance “Sx4_(1-275) (de-tagged) (from UniProt Q08850 1-275) (domain or fragment)”, in the assay with HL-Munc18c (mouse), the Kd was found to be 72 nM, the koff is 0.022 s⁻¹ and the on-rate constant (kon) was found to be 300000 M⁻¹ s⁻¹.
For “Sx4_(1-275)-T4L (de-tagged) (from UniProt Q08850 1-275; P00720 1-164)” the same measures were 31 nM, 0.009 s⁻¹ and 290000 M⁻¹ s⁻¹.
As for “Sx4_(30-275)-His (from UniProt Q08850 30-275) (domain or fragment)”, the kobs of SNARE complex formation with m13 in assay [1] is 0.00049 s⁻¹; in assay [2] it was 0.00048 s⁻¹.
For “Sx4_(30-275)-T4L-His (from UniProt Q08850 30-275; P00720 1-164)” the same measures were 0.00048 s⁻¹ and 0.0005 s⁻¹.
